Patent US20240425603A1 (Janssen / Centocor, published 2024)
“And” between values parts separate entries of the source, which are not always exact repeats. Equal values may be shown once.

How the values were obtained:
[1] = target: T1, ISLR (BC022478) (human, UniProt O14498 19-428); experiment: Retrogenix cell microarray, fixed HEK293 cells, 2 ug/mL antibody
T1 construct: whole, on cells; also called Immunoglobulin superfamily containing leucine-rich repeat protein
T1 sequence (looked up): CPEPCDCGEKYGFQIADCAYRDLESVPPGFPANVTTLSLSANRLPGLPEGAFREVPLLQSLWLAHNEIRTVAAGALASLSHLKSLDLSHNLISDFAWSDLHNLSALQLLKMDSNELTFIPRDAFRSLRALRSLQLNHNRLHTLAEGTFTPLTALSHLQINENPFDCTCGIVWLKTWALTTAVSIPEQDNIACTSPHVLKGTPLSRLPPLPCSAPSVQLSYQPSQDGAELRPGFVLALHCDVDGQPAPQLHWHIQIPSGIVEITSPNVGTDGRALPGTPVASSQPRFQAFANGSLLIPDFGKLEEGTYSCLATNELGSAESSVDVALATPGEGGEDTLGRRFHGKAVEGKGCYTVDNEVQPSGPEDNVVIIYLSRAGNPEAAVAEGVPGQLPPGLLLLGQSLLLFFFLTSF
Protocol: This human cell microarray methodology has been previously described in the literature (Freeth, J. et al, SLAS Discovery, 25 (2), 223-230, 2020). Primary screening was performed on slides arrayed with fixed HEK293 cells with each spot of HEK293 cells expressing either a unique protein from the cell surface-ome, a cell surface tethered human secreted protein, or a heterodimeric human cell surface receptor. In total, 5,528 unique gene products were represented in this primary screen (4,103 human plasma membrane proteins (+some untethered secreted proteins)+1,425 cell surface tethered human secreted proteins). Briefly, slides containing fixed transfected HEK293 cells were overlaid with a solution of test antibody (2 μg/mL), incubated, and washed. Binding was assessed using AlexaFluor647-conjugated anti-human IgG Fc detection antibody and fluorescence quantitation on ImageQuant. […] Located in the ER, off-target binding to CRELD2 was of less concern. Nectin-1, FGFR2, and ISLR, on the other hand, display broad tissue expression profiles. Cross-reactivity to these proteins is undesirable because binding to these targets might have a significant impact on pharmacokinetic and biodistribution profiles of the molecules. This off-target binding was subsequently confirmed by flow cytometry on live HEK293 cells transiently expressing these ‘off-target’ proteins identified in the primary screen.

[2] = target: T2, human VEGFR2, over-expressed on HEK293 cells (human, UniProt P35968 20-1356); experiment: flow cytometry, single concentration (Table 21)
T2 construct: whole, on cells; also called huVEGFR2; hVEGFR2

[3] = target: T3, human VEGFR1 (soluble antigen of the KinExA and SPR affinity assays) (human, UniProt P17948 27-758, limits assumed); experiment: SPR
[4] = target: T4, rat VEGFR1 (soluble antigen of the KinExA and SPR affinity assays) (rat, UniProt P53767 23-758, limits assumed); experiment: SPR
T4 sequence (looked up): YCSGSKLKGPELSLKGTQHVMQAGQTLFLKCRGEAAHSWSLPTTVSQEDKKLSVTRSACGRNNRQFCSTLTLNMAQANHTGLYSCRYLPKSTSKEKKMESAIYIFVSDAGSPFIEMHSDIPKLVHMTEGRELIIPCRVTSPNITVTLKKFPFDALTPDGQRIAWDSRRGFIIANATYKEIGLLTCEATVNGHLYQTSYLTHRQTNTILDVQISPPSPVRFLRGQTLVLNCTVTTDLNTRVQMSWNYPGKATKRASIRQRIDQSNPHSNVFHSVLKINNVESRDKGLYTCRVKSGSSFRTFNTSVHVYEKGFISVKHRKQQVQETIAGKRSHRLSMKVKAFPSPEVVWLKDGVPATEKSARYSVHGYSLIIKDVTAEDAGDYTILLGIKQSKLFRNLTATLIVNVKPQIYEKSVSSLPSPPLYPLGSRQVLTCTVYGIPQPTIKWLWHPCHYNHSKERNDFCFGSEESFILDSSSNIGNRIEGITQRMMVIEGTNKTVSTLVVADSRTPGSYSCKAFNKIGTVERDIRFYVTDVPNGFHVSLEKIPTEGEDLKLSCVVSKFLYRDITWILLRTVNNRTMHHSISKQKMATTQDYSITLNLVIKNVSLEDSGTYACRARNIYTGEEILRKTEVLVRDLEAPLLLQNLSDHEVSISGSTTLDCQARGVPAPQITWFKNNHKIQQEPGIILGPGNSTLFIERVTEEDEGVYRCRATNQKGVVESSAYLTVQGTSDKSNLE

[5] = target: T3, human VEGFR1 (soluble antigen of the …); experiment: KinExA, solution
Protocol: (§1) Kinetic exclusion assay (KEA; KinExA) was used to analyze the binding of anti-VEGFR1 antibodies to human, mouse and cynomolgus monkeys VEGFR1. KEA is a fluorescence-based solution method, and it is described in detail in the literature (Darling and Brault, 2004). To measure the affinity of an interaction, a series of solutions with a fixed concentration of one interactant (A) and varying concentrations of another interactant (B) are prepared and allowed to reach equilibrium. After equilibration, the concentration of free A is determined by flowing the equilibrated mixture through a column packed with beads modified with reactant B. Free A binds to the beads and is then detected using a fluorescently labeled polyclonal antibody.
(§2) Briefly, fixed concentrations (300 pM, 60 pM, 12 pM, 2.4 or 0.5 pM) of Ab were used to prepare a serial dilution of the antigen (2 nM to 0.52 pM, or 800 pM to 5.37 fM). The complex titrations were incubated at RT to reach binding equilibrium for at least 2 days. After incubation, the samples were run on the KinExA3200 or KinExA4000 instrument to assess free antibody in the reaction. During these studies some of the data were rejected because the experiments failed or failed the acceptance criteria. For mouse VEGFR1 the 60 and 300 pM concentrations were rejected due to high titrant related NSB. The dissociation equilibrium constant, (KD), was determined using the n-curve analysis feature of the KinExA Pro software. This program uses nonlinear least-square regression analysis of the globally fitted data to a 1:1 binding model. (CI=confidence interval).

[6] = target: T4, rat VEGFR1 (soluble antigen of the …); experiment: KinExA, solution
Protocol: as §1, §2

T3 sequence (P17948 27-758 limits assumed): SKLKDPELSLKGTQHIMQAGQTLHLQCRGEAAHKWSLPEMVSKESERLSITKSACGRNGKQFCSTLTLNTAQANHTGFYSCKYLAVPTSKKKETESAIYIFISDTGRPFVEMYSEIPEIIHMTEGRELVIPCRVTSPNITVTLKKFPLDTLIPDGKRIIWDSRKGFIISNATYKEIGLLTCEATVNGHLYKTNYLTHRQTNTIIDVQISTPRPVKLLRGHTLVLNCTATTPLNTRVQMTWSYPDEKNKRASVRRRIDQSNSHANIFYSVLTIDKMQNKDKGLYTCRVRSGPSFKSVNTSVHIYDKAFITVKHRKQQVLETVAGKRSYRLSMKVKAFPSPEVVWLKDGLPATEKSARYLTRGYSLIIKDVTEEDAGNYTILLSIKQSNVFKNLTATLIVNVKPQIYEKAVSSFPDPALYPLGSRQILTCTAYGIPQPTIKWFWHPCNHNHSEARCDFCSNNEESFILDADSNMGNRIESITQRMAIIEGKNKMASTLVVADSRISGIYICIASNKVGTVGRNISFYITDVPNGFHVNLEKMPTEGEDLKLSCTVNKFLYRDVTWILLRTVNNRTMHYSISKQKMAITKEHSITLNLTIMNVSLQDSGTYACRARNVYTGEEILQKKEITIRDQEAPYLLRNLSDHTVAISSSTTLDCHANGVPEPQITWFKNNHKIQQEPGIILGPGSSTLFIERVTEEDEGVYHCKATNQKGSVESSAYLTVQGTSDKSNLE
T2 sequence (P35968 20-1356): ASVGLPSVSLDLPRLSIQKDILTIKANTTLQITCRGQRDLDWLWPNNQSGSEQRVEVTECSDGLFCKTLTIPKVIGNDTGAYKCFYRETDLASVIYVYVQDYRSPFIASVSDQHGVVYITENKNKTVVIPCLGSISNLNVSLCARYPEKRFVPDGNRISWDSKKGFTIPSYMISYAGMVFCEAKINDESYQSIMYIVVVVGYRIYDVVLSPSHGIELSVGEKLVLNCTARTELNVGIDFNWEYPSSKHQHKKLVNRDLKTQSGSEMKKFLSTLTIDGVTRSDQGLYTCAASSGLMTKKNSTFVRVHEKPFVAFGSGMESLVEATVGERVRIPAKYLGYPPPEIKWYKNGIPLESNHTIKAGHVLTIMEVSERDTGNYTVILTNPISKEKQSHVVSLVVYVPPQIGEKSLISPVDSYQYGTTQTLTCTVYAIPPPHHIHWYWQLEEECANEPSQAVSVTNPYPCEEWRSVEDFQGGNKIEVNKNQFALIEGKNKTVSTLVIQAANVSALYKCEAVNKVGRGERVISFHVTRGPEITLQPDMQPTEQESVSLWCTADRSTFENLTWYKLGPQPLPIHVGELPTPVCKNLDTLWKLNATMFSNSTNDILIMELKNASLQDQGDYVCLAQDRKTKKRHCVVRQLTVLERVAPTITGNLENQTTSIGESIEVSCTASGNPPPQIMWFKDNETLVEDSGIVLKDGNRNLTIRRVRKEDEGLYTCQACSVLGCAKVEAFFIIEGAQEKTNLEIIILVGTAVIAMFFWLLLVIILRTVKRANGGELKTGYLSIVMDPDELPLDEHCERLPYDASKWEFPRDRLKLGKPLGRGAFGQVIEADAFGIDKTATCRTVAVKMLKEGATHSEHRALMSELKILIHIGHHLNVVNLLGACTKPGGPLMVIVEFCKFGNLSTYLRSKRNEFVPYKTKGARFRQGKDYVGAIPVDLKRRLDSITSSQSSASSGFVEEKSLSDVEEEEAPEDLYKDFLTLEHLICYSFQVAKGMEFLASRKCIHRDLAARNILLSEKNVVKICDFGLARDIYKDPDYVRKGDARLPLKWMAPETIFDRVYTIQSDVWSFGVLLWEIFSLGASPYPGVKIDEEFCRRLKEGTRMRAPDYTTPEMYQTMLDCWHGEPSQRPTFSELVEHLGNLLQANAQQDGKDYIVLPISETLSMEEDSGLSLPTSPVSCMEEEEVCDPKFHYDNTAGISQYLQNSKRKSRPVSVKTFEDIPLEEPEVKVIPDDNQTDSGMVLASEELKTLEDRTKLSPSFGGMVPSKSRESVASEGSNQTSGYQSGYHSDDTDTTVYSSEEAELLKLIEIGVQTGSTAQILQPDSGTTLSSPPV

B1: VGFB78 (antibody, human IgG1, lambda, L234A L235A, V domains shown)
VH: EVQLLESGGGLVQPGGSLRLSCAASSFTFYNYDMTWVRQAPGKGLEWVAGIGTSGTDMYYADSVKGRFTISRDNSKNTLYLQMNSLRAEDTAIYYCAKDYYYYGMDVWGLGTTVTVSS
VL: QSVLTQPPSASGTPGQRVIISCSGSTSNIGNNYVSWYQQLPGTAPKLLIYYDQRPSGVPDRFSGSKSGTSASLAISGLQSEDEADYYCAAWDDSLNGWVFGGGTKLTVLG
notes: human IgG1 (L234A/L235A/D265S)
binding result [1]: binds

B2: VGFB71 (antibody, human IgG1, lambda, L234A L235A, V domains shown)
VH: EVQLLESGGGLVQPGGSLRLSCEASGFIFRDYNMNWVRQAPGKGLEWVSIITNDGSSTAYSDSVKGRFTISRDNSKNSLYLQMNSLRAEDTAIYYCVKVYYGMDDWGQGTTVTVSS
VL: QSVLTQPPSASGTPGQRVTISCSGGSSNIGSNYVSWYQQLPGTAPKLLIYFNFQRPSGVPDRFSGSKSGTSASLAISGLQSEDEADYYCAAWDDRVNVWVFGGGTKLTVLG
notes: as for B1
binding result [2]: no binding (tested: 10 nM)

B3: VGFB82 (antibody, human IgG1, lambda, L234A L235A, V domains shown)
VH: EVQLLESGGGLVQPGGSLRLSCEASGFDFSTYAMNWVRQAPGKGLEWVATINSEGTITSHAPAVKGRFTISRDNSKNTAYVQMNSLRAEDSAVYYCSSTTGTTHGMDVWGRGTTVTVSS
VL: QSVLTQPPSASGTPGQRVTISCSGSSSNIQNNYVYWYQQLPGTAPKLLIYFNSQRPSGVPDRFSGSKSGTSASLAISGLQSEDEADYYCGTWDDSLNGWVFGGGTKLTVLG
notes: as for B1
Kd [3]: 0.01 nM and < 0.006 nM
Kd [4]: 0.6 to 1 nM
Kd [5]: 0.00046 nM
Kd [6]: 0.224 nM
